Test results: US20260125478A1 (VIELA BIO, published 2026)

Tests used:
[1] = target: T1, recombinant human FcγRIIIA-158V allotype (ELISA coat, generated at MedImmune) (human, UniProt P08637 17-208, limits assumed); experiment: ELISA on plate-coated FcγRIIIA-158V (2 µg/ml), detection with goat anti-human Fc-HRP
T1 construct: also called FcγRIII-158V allotype; CD16A 158V
Method: (§1) Plates were washed five times with 200 μl of wash buffer (PBS containing 0.1% Tween 20), blocked with blocking buffer containing 5% milk in PBS for 1 hour at room temperature, and washed five additional times with wash buffer. Three-fold serial dilutions of the test antibody or control antibody (R347-Tm) were added to wells in duplicate. Plates were incubated for 2 hours at room temperature, and washed five times with wash buffer. Binding of the antibodies to the FcγRs was detected by adding 50 μl of goat anti-human Fc-HRP (Jackson ImmunoResearch Laboratories, PA) to the wells and incubating for 1 hour at room temperature, washing 10 times, and adding 50 μl TMB substrate (Pierce Biotechnology, MA). The color reaction was stopped with 50 μl 0.2M […] and the absorbance was measured using a spectrophotometer (Molecular Devices, CA) at […].

[2] = target: T2, human FcγRIIA 131R on blood cells of 131R/R donors (human, UniProt P12318 34-317); experiment: cell-based or functional assay
T2 sequence: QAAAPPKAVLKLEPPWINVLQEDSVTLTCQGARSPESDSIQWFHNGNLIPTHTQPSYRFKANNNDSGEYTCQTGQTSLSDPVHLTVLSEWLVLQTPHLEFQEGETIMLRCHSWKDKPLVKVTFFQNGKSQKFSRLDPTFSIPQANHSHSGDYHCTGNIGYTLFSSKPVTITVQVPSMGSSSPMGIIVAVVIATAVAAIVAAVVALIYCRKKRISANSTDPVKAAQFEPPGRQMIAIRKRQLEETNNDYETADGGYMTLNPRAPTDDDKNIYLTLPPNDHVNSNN

[3] = target: T3, human FcγRIIA 131H on blood cells of 131H/H donors (human, UniProt P12318 34-317); experiment: cell-based or functional assay
T3 sequence (looked up): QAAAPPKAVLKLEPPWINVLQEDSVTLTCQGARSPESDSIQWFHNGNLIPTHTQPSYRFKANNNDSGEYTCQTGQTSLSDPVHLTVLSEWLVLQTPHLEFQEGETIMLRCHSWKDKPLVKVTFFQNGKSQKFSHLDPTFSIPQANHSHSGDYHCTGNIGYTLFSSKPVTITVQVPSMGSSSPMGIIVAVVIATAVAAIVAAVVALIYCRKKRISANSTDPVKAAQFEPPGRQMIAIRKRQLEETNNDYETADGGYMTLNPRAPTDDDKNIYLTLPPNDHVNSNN

[4] = target: cynomolgus monkey FcγRIIA on blood cells (cynomolgus monkey); experiment: cell-based or functional assay
[5] = target: T4, recombinant FcγRIIB (ELISA coat, generated at MedImmune) (UniProt P31994 43-217, limits assumed); experiment: ELISA on plate-coated FcγRIIB (2 µg/ml), detection with goat anti-human Fc-HRP
T4 construct: also called CD32B
T4 sequence (looked up): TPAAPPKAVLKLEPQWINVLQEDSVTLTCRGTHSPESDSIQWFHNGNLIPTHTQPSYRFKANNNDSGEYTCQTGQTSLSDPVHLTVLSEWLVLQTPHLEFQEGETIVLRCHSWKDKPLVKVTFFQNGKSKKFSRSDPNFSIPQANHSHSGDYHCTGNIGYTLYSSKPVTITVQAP
Method: as §1

[6] = target: T5, cynomolgus CD32A version 3, 6xHis tagged (cynomolgus monkey); experiment: Biacore; IgG1-TM captured on a Protein G chip, CD32A as analyte, 1:1 Langmuir fit, average of two experiments
T5 construct: also called Cyno CD32A; cyno CD32A (version 3)
T5 chain: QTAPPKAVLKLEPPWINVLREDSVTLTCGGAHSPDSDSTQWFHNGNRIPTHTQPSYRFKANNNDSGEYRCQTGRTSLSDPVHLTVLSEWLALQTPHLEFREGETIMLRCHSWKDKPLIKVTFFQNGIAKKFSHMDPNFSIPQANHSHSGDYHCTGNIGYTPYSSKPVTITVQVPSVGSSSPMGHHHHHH

[7] = target: T6, human FcγRIIA on primary human cells (neutrophils; sorted CD14+ monocytes), allotype not stated (human, UniProt P12318 34-317); experiment: flow cytometry, fluorescently labelled antibody on human neutrophils, 30 min at 4 °C, without IVIG
T6 construct: whole, on cells; also called human FcγRIIA at the neutrophil surface; FcγRIIA-expressing neutrophils
T6 sequence (looked up): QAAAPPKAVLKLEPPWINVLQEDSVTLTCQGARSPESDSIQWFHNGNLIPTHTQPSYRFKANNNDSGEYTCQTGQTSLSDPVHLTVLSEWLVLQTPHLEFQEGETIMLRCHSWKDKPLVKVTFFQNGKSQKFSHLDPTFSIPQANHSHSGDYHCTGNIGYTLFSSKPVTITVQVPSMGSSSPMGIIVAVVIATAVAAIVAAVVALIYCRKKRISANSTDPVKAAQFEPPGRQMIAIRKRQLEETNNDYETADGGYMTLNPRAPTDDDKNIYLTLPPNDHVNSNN
Method: (§2) Human neutrophils were re-suspended in blocking buffer [phosphate-buffered saline (PBS) supplemented with 10% fetal bovine serum] and transferred to round-bottom 96-well culture plates (0.5×10^6 cells/well). […] After incubation, cells were washed with cold PBS and the mean fluorescence intensity (MFI) of cell-bound antibodies was assessed by flow cytometry using an LSRII (BD; Franklin Lakes, NJ). The EC₅₀ for binding was calculated using a non-linear fit equation in GraphPad Prism 6 software.

[8] = target: T7, recombinant FcγRIIA-131H/H allotype (ELISA coat, generated at MedImmune) (human, UniProt P12318 34-217, limits assumed); experiment: ELISA on plate-coated FcγRIIA-131H/H (2 µg/ml), detection with goat anti-human Fc-HRP
T7 construct: also called human FcγRIIA; CD32A
T7 sequence (looked up): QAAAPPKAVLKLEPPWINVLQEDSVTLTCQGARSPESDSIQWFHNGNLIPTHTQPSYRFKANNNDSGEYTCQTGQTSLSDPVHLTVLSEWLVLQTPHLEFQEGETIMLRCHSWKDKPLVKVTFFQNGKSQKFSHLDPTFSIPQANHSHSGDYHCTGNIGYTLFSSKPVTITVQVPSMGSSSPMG
Method: as §1

[9] = target: T6, human FcγRIIA on primary human cells …; experiment: flow cytometry, fluorescently labelled antibody on human neutrophils, 30 min at 4 °C, in the presence of 10 mg/mL IVIG as competitor
Method: as §2

[10] = target: T6, human FcγRIIA on primary human cells …; experiment: flow cytometry, fluorescently labelled antibody on human neutrophils, in the presence of 10 mg/mL IVIG as competitor
Method: as §2

[11] = target: T6, human FcγRIIA on primary human cells …; experiment: flow cytometry, fluorescently labelled antibody on human neutrophils, without IVIG
Method: as §2

T1 sequence (P08637 17-208 F176V limits assumed): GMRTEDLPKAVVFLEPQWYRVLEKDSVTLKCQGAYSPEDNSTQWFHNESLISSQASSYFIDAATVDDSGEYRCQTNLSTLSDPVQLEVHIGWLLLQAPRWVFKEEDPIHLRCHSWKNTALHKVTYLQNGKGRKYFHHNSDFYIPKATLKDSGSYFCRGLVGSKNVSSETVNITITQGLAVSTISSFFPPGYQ

binding result [1]: no binding (tested: about 15000 ng/ml) | IC50 of the loss of surface FcγRIIA (M.F.I of IV.3-Alexa 647) on monocytes, whole blood, 2 h at 37 °C [2]: 0.0593 nM | IC50 of the loss of surface FcγRIIA (M.F.I of IV.3-Alexa 647) on monocytes, whole blood, 2 h at 37 °C [3]: 0.0809 nM | IC50 of the loss of surface FcγRIIA (M.F.I of IV.3-Alexa 647) on cynomolgus monocytes, whole blood, 2 h at 37 °C [4]: 1.09 nM | binding result [5]: no binding (tested: about 15000 ng/ml) | Kd [6]: 31.3 nM | koff [6]: 0.0904 s⁻¹ | kon [6]: 2.88e+06 M⁻¹ s⁻¹ | EC50 [7]: 0.0293 nM | EC50 (read off the curve) [8]: ~5 ng/mL | EC50 [9]: 3.35 nM | EC50 [10]: 3.34 nM | EC50 [11]: 0.03 nM
B1: 32LO0352 (MEDI9600) (antibody, human IgG1, V domains shown)
VH: QVQLVQSGAEVKKPGASVKVSCKASGYTFTNYGMNWVRQAPGQRLEWMGWLNTYTGESWYPDDFKGRVTITRDTSASTAYMELSSLRSEDTAVYYCARGDYGYDDPLDYWGQGTLVTVSS
VL: DIVMTQSPLSLPVTPGEPASISCRSSKSLLHTNQNTYLHWFLQKPGQSPQLLIYRMSVLASGVPDRFSGSGSGTDFTLKISRVEAEDVGVYYCMQHLEYPLTFGQGTKLEIK
notes: Fluorescently labelled in the neutrophil flow cytometry assay and Alexa 647 labelled for confocal microscopy; also called clone 32LO0352; CD32LO0352
